Laboratory results as given in IntAct's records for PubMed 10198631.

B1: Bcl-2-like protein 11 (Mus musculus), O54918-2 (parent)
chain: MAKQPSDVSSECDREGGQLQPAERPPQLRPGAPTSLQTEPQDRSPAPMSCDKSTQTPSPPCQAFNHYLSAMASIRQSQEEPEDLRPEIRIAQELRRIGDEFNETYTRRVFANDYREAEDHPQMVILQLLRFIFRLVWRRH

Variants of: B1
Details: with dlrb1_human DYNLRB1, Q9NP97
Chain of dlrb1_human DYNLRB1, Q9NP97 (Q9NP97 whole entry): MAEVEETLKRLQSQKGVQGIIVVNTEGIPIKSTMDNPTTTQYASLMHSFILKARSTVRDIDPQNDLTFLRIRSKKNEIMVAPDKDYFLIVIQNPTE

| effect of a mutation on the interaction | Variant |
| --- | --- |
| decreasing interaction | T54A;N65S |
| decreasing interaction | T54A |
| decreasing interaction | S53P |
